Measured values reported in patent US20250276073A1 (Bicycle, published 2025).

Target: T1, Recombinant human His-tagged TfR1 (a.a. 89-760) (ACRO Biosystems, CD1-H5243) (human, UniProt P02786 89-760)
T1 construct: range 89-760; Bought protein; Captured and amine-coupled on an NTA chip; also called human TfR1; transferrin receptor 1; not shown: His tag (printed 'Hiss-tagged')
Assay: SPR (Biacore), TfR1 captured/coupled on NTA chip, peptide as analyte

T1 sequence (P02786 89-760 limits assumed): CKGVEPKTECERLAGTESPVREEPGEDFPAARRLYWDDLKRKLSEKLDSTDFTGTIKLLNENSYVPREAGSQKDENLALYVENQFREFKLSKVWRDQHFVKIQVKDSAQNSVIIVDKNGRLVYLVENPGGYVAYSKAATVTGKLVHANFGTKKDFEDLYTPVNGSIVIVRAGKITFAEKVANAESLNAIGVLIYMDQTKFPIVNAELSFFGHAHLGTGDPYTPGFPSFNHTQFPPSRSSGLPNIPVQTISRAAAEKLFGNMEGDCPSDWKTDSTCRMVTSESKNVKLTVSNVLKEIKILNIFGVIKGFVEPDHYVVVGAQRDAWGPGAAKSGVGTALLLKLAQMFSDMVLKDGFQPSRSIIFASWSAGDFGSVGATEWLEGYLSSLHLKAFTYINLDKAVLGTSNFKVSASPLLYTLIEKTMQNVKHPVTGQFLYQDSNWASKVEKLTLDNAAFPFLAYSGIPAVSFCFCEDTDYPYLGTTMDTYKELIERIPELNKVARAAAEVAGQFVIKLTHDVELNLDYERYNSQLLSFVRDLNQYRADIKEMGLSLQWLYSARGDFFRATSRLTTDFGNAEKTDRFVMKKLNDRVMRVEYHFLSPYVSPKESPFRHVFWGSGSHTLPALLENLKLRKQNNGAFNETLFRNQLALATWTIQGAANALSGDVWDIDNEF

B1: BCY23201 (peptide)
peptide: CPXDAYLGCXSXCEPW
modifications: CP[HyP]DAYLGC[tBuGly]S[pCaPhe]CEPW: HyP at 3, tBuGly at 10, pCaPhe at 12; N-terminal acetyl; C-terminal CONH2; Cys 1, 9, 13 bonded to TATB scaffold
notes: Bicyclic peptide
Q: For B1, which Kd is on record?
A: The Kd was 17 nM.
